Earlier results on one substance are cited in publication PMC4623992.

The target in this data set is TLR4 (Homo sapiens) (UniProt O00206).

pKd: −log10 of the molar value.

UniProt O00206, sequence (O00206 24-631): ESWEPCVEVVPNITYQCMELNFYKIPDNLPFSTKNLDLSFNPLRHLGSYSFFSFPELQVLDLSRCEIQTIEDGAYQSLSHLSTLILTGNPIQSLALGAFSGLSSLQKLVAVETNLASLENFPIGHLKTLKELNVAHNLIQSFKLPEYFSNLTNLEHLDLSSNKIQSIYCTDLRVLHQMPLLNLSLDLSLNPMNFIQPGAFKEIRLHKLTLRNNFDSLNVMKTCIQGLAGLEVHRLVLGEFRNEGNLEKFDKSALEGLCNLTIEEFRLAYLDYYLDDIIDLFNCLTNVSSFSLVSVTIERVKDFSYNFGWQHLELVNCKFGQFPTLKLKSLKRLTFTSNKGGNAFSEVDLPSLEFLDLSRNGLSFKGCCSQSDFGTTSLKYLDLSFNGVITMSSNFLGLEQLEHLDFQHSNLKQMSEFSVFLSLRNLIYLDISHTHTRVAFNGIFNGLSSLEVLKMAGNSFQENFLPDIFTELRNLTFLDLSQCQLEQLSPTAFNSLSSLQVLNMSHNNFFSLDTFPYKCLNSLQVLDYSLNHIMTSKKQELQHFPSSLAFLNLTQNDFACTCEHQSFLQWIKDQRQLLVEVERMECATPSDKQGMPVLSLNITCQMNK

A word on the pKd: it is −log10 of the Kd, conventionally taken in molar units. As to MD-2 (from UniProt Q9Y6Y9), the negative logarithm of the Kd (pKd) was 7.92.
